assay: soluble on expression in E. coli; label from the status in PepcDB or PDB records

Row | Sequence | soluble on expression in E. coli
1 | GYITVGNENSTPIELYYEDQGSGQPVVLIHGYPLDGHSWERQTRELLAQGYRVITYDRRGFGGSSKVNTGYDYDTFAADLHTVLETLDLRDVVLVGFSMGTGELARYVARYGHERVAKLAFLASLEPFLVQRDDNPEGVPQEVFDGIEAAAKGDRFAWFTDFYKNFYNLDENLGSRISEQAVTGSWNVAIGSAPVAAYAVVPAWIEDFRSDVEAVRAAGKPTLILHGTKDNILPIDATARRFHQAVPEADYVEVEGAPHGLLWTHADEVNAALKTFLAK | soluble
2 | GYWGCKDLNSVFVYANQAYGELIGLKRAEDCIGRTDFEMPSPTAACAAEFQQQDRYVIETGHSVKVLDIHPYPDGHWHAHIFTKTPWRDSQGKIQGTIFFGQDLT | not soluble
3 | HAIFEREGNNLYCEVPINFTMAALGGEIEVPTLDGRVNLKIPGETQTGKLFRMRGKGVKSVRGGAQGDLLCRVVVETPVGLNEKQKQLLKELQESFGGPTGENN | not soluble
4 | HDTILFFSNKGKVYRAKGYEIPEYGRTAKGIPIINLLEVEKGEWINAIIPVTE | not soluble
5 | HGDHMHNHDTKMDTMSKDMMSMEKIVVPVQQLDPQNGNKDVGTVEITESAYGLVFTPKLHDLAHGLHGFHIHEKPSCEPKEKDGKLVAGLGAGGHWDPKQTQKHGYPWSDDAHMGDLPALFVMHDGSATTPVLAPRLKKLAEVKGHSLMIHAGGDNHSDHPAPLGGGGPRMACGVIK | soluble
6 | HHHHHHSSGLVPRGSHMRNYCTKTFGSAFSVTVVPTLKDNFSYLINDHTTHTLAAVDVNADYKPILTYIEEHLKQQGNADVTYTFSTILSTHKHWDHSGGNAKLKAELEAMNSTVPVVVVGGANDSIPAVTKPVREGDRVQVGDLSVEVIDAPCHTRGHVLYKVQHPQHPNDGVALFTGDTMFIAGIGAFFEGDEKDMCRAMEKVYHIHKGNDYALDKVTFIFPGHEYTSGFMTFSEKTFPDRASDDLAFIQAQRAKYAAAVKTGDPSVPSSLAEEKRQNLFLRVADPAFVAKMNQGNAHALMMYLYNACD | soluble
7 | HHHHHHSSGLVPRGSHMTAQTVTGAVAAAQLGATLPHEHVIFGYPGYAGDVTLGPFDHAAALASCTETARALLARGIQTVVDATPNGCGRNPAFLREVSEATGLQILCATGFYYEGGGATTYFKFRASLGDAESEIYEMMRTEVTEGIAGTGIRAGVIKLASSRDAITPYEQLFFRAAARVQRETGVPIITHTQEGQQGPQQAELLTSLGADPARIMIGHMDGNTDPAYHRETLRHGVSIAFDRIGLQGMVGTPTDAERLSVLTTLLGEGYADRLLLSHDSIWHWLGRPPAIPEAALPAVKDWHPLHISDDILPDLRRRGITEEQVGQMTVGNPARLFG | soluble
8 | HMKIAIFGTVGAGKSTISAEISKKLGYEIFKEPVEENPYFEQYYKDLKKTVFKMQIYMLTARSKQLKQAKNLENIIFDRTLLEDPIFMKVNYDLNNVDQTDYNTYIDFYNNVVLENLKIPENKLSFDIVIYLRVSTKTAISRIKKRGRSEELLIGEEYWETLNKNYEEFYKQNVYDFPFFVVDAELDVKTQIELIMNKLNSIKNPN | soluble
9 | HMNFKMEHQNKRSPLHAAAEAGHVDICHMLVQAGANIDTCSEDQRTPLMEAAENNHLEAVKYLIKAGALVDPKDAEGSTCLHLAAKKGHYEVVQYLLSNGQMDVNCQDDGGWTPMIWATEYKHVDLVKLLLSKGSDINIRDNEENICLHWAAFSGCVDIAEILLAAKCDLHAVNIHGDSPLHIAARENRYDCVVLFLSRDSDVTLKNKEGETPLQCASLNSQVWSALQMSKALQDSA | soluble
10 | HMSSGSAGLSSLHRTYSQDCSFKNSMYHVGDYVYVEPAEANLQPHIVCIERLWEDSAGEKWLYGCWFYRPNETFHLATRKFLEKEVFKSDYYNKVPVSKILGKCVVMFVKEYFKLCPENFRDEDVYVCESRYSAKTKSFKKIKLWTMPVSSVRFVPRDVPLPVVRVASVFANTD | soluble
11 | HPEKCSECSYSCSSKAALRIHERIHCTDRPFKCNYCSFDTKQPSNLSKHMKKFHGDM | soluble
12 | HRIPAYTLTDQNGDAFKSTAYDSSFKVYDFVFTRCGSICPEMTTQMIRVQEAFKHDKDVVLISLTVDPEHDSSEVLQRYAKQYNAIPGKWYFLTGEKDTIYTLGQRQFFLTAKQNEEDLTDFLHSERIVLVDKNGWIRGYYTGTNEKDVDRLITELKVLQKIERDAKRK | not soluble
13 | HSHSDKHPVTWQPSKDGDRLIGRILLNKRLKDGSVPRDSGAMLGLKVVGGKMTESGRLCAFITKVKKGSLADTVGHLRPGDEVLEWNGRLLQGATFEEVYNIILESKPEPQVELVVSR | soluble
14 | HVFVVDFNGSIDAKEVSSLREEVSAILSVAKPEDEVFVRLESGGGMVHGYGLASSQLDRIRQHNIPLTVSVDKVAASGGYMMACVANNIISAPFAILGSIGVIAQVPNFNKLLKKHDIDFEQFTAGEFKRTVTMFGENTEKGKEKFIEELEETHVLFKNFVSERRPSLDIVKVATGEHWFGTTALELGLVDSIQTSDD | not soluble
15 | IASPQAGMAALTGTLAGTRQGMISFTQQNEQEADRIGIQVLQRAGFDPQAMPSFLEKLLDQARYSTRPPEILLTHPLPESRLADARNRANQMRPVVVQSSADFYFAKARALGMYNSGRNQLTSDLLDQWSKGNVHQQHAAQYGRALQAMEASKYDEARKTLQPLLSAEPNNAWYLDLATDIDLGQKRANDAINRLKNARDLRVNPVLQLNLANAYLQGGQPKAAETILNRYTFSHKDDGNGWDLLAQAEAALNNRDQELAARAESYALAGRLDQAISLLSSASAQAKLGCQQQARYDARIDQLRQLQERFKPYTK | not soluble
16 | ICMNVENKVTHKPLEFNYTDKYCGNVKNLISCKLYQHALTLIDSFRKDKTI | not soluble
17 | IEKSTQYMAKRRIGALISVARDTGMDDYIETGIPLNAKISSQLLINIFIPNTPLHDGAVIIKGNEIASAASYLPLSDSPFLSKELGTRHRAALGISEVTDSITIVVSEETGGISLTKGGELF | not soluble
18 | IGDFEYYIDGMLTFNTNKITEMDELTPDYAYQARTGNRIDQSQLLIWKQWASNPDLIPESYEDAVANPQKYPWNAAGKYKLGNAVFQDTNGDRKIDSYDKVPTGYTNIPELIPTIRLGFSWKGFDARAVLTAYLNRTVPCRENMDYGFGWGGTSTHEITNTWGYYTDDPTDPRNINAKYPRLSTSFSDLDRNYPYNESTIWVVNGDFLSLRNVEVGYSLPARLISKVNMTKCRLYFSGYNLCNWSHLPKGFDPENPTNYIWAYPKTRSFTFGVNIGF | not soluble
19 | IGEFSYHVNGNFSIIKNKVISLGVGDVEQKSGMIGNGSDLFLGYPMNMFYGYKTDGVFLTDDEVKEWHDQSKIAPNSKAGDLRYVDISGDGKVDESDKTYLGSKIPQYTFGLGLGAEYKGFDFNILLQGVAKVKGQLTNYAGYAFFQEGNIQKWQAEETWTNNQSNRYPKYPRLEVMSNAGSNNTLGSDFWILDASYLKVRNIQLGYTLPKRITQKFGSSNLRFYISLDNPFSISGYRKGWDPEINTDGSYYPILSTYTFGLTLKF | not soluble
20 | IGEVSYGAKFVLSDDQQKILRYPNDSYDVGSYYKGEHLNDIWGLTTIGIAKSQEEMDAHLAKVDQSSVGTNWGVGDIMYADLDGDGKISNGTNKLGDTGDYRIIGNSTPRFKYGITLDAAWKGFDFSIFMQGIGKRDLWLDGCYFWGANGQGNEWQSTGFAEHWDFFRPEGDPLGANLNSYYPRVNFSGDRNTKVQTRYLQNGAYLRLKNVQLGYTLPRVWTEKAGISSVRVYVSGDNLATITSLSKIFDPEATGSLAGTGSGKLYPLQRVISVGVNVNF | not soluble
21 | IHFTTEVITSRIEPANRYVAEKLRITPGQDILYLERLRSIGDEKAMLIENRINIELCPGIVEIDFNQHNLFPTIESLSKRKIRYSESRYAARLIGNERGHFLDISEDAPVLHLEQLVFFSRELPVEFGNVWLKG | not soluble
22 | IHPVDSSERVLILGAGRTAEALVRDMRRTGAFVPVGFIDDAVYLRGAKIQGLNVLGRLEEVSTIARETAAKLLVIAIPSLDAAGMQRVVAMCESTGLPFRMVPKLIDVLEGRTLPCQLKEVSIEDLLNRKPVIPDWRLIRSWLSG | not soluble
23 | IIEEEQQSLTGRLNIAVLPTIAPYLLPRVFPIWKKELAGLEIHVSEMQTSRCLASLLSGEIDMAIIASKAETEGLEDDLLYYEEFLGYVSRCEPLFEQDVIRTTEVNPHRLWLLDEGHCFRDQLVRFCQMKGLHERQTAYSGGSMEAFMRLVESGQGITFIPQLTVEQLSPSQKELVRPFGMPRPVREVRLAVRQDYSRRKLREQLIGLLRSAVPSDMHKLQTGQHLAHHHH | soluble
24 | IIHREYPRHHVLHRFTPASKPNGKKILITHGWMSRAAYMVRLIRLLHKEGYEVYAIDFPAHGEAKGIQLPWTDAIAIIKETINQFGPFYGLVGHSFGGSMILNTLNLAGQLPEWQLNHKPERAILIASPTQMRTPVNKIARRFKLSGQAYLQLRQLIRQQASVDPERIRLSHFISQAPDTYFLCIHGELDATINPKESINFCKYYKNARLSLLPDADHVSVLMDERVEQIALDFLNR | not soluble
25 | IKNDGLKLDAYYLPAGKATNKTVIIIHGFRRNKTGMKAYTDMFANLGYNTLTVDNRGHGKSQGHYVGFGWLDKGDVEAWIRYLISKNKNVEIVPFGISMGGATVAMMSGDSLPSNVKALIEDSGYTSVEAEITYEAKAMYNLPQKPFVSTVSLISKLFAGYSYTEASSIKQVEKNTRPMLFMHGGADSYVPTKMVYQLYNADKDPEKQLWIAPNSGHVQGFGDHPSAYTAQIKKFLNLYFK | not soluble
26 | IKVQIEKQLSERILLIDGGMGTMIQGYKFEEEDYRGERFNKWHCDLKGNNDLLVLSQPQIIRDIHEAYLEAGADILETNTFNATTIAMADYDMESLSEEINFEAAKLAREVADKWTEKTPNKPRYVAGVLGPTNRTCSISPDVNDPGFRNVSFDELVEAYSESTRALIRGGSDLILIETIFDTLNAKACSFAVESVFEELDITLPVMISGTITDASGRTLSGQTTEAFYNALRHVKPISFGLNCALGPDELREYVSDLSRISECYVSAHPNAGLPNAFGEYDLSPEDMAEHVAEWASSGFLNLIGGCCGTTPEHIRQMALVVEGVKPRQLPELPVACRLSGLEPLTIEKDSLFINVGERTNVTGSARF | not soluble
27 | ILLLLLSLFLGLSSQAQEDSLQANRYVMRATLYGAGFTNILDTYLSPMEYTGPEIRILRESMRMTKLMNGNVSVQSLFQANLSLTENKAETSNEMAGMVNWNYALHYQFRLTENLKILAGPMLDLNGGFIYNMRNSNNPAQAKAYVNLAASGMVIYRFHIGNYPLIARYQANLPVMGIMFSPEYGQSYYEIFSLKNGGKNVLFTSLHNQPSLRQLVTLDFPIRSVNMRFGYLCDIQQAKVNNLKSHIWSHAFMIGFVKNFYLLKGKNKVAMPSRVSPY | not soluble
28 | ILLPSKPRFIFQDVTVFNFNVSGNPSDLNTPVVQFNLSFRNPNANIRIYYDTLDVYAFYGNGSQQIIIPTPMPSTYQGHKEDSVWSPYIPVVPYNALYLDDQHHSRDGNMLMLHLDGRISWLLLGN | not soluble
29 | IPLPEQPGGSSDFIAFTDKAKLTFTTSRPMKMVYTLDETEPTLTSTPYTVPLEFAQTGLLKIRTVTAGGKMSPVRRIRVEKQPFNMSMEVPAPKPGLTIRTAYGDLYDVPDLQQVASWEVGTVSSLEEIMHGKEKITSPEVLERRVVEATGYVLIPEDGVYEFSTENNEFWIDNVKLIDNVGEVKKFSRRNSSRALQKGYHPIKTIWVGAIQGGWPTYWNYSRVMIRLKGEEKFKPISSDMLFQ | not soluble

From the DeepSol protein solubility set
